Consider two substances from patent publication US20100160220A1.

For test [1], the target named is PTH1R tagged with HA (human) (UniProt Q03431). Put plainly: PTH ligand incubated with transfected cells for 15 seconds, plasma membrane isolated, bound ligand by Western blot. (A western blot detects proteins with antibodies after separation by electrophoresis.)
A further test concerns the target PTH1R-YFP2 (UniProt Q03431). The test is described as follows: YFP protein-fragment complementation assay with PTH1R-YFP2 in living cells.

Sequence of PTH1R-YFP2 (Q03431 27-593): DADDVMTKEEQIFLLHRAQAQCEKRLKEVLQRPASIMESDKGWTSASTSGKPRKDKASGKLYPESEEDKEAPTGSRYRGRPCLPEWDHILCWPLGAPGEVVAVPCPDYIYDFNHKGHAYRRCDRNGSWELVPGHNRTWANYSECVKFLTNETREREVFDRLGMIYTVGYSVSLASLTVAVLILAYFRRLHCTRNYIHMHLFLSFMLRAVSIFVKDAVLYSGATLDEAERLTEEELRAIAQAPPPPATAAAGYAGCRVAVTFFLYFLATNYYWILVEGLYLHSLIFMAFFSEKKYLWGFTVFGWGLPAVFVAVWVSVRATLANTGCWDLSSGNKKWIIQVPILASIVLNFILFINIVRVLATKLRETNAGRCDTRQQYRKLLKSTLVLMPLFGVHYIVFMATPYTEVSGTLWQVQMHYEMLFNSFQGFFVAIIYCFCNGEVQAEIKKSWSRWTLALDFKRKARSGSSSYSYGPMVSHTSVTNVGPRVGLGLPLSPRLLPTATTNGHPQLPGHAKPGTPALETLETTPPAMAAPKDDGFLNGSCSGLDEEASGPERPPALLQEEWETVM
Sequence of PTH1R tagged with HA (human) (Q03431 27-593): as above

“PTH ligand (form not stated, Example 12) (from UniProt P01270 32-65)” came in with a reduction of binding of PTH ligands versus vector control (cells overexpressing WT TβRII) in test [1] of 50%.

Regarding “kinase dead TβRII (K277A)-YFP1 (from UniProt P37173 23-567) (receptor)”, the YFP fluorescence intensity relative to WT TβRII (fold of WT TβRII-YFP1) in the test with PTH1R-YFP2 came out at 0.167.
